From patent US20080311122A1 (AstraZeneca / MedImmune, published 2008)

How the values were obtained:
[1] = molecular target: T1, recombinant HMG1 purified from E. coli as a calmodulin binding protein (CBP) fusion protein (human, UniProt A9RA84 1-215 (Papio anubis entry)); assay: cell-based or functional assay
T1 sequence: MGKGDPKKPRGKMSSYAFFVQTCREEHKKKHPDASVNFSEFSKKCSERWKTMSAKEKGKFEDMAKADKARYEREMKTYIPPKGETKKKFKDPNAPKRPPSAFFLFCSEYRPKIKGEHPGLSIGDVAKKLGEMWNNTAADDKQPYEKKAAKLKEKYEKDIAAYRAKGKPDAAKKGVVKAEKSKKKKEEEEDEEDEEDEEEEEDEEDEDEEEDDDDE

[2] = molecular target: T1, recombinant HMG1 purified from E. coli …; assay: ELISA, rHMG1 preincubated with antibody, coated RAGE-Fc
Experimental: HMG1 binding to RAGE-Ig by ELISA: 50 μl/well of RAGE-Fc fusion protein at 5 μg/ml in PBS was added to each well of an ELISA plate and incubated overnight at 4° C. The plate was then blocked with 200 μl of 5% milk at 37° C. for 1 hr and washed 3× with PBS/Tween. 50 μl/well of diluted HMGB1 solution. For dose curves, HMGB1 concentrations started at 4 ug/ml in PBS. For antibody blocking the HMGB1 was preincubated in another plate with human anti-HMG1 antibodies or buffer, then transferred to the RAGE-coated plate. The plates were then incubated at room temperature for 2 hours and washed 3×. To detect any HMG1 bound to the immobilized RAGE-Fc a mixture of biotinylated mouse anti-HMG1 mAbs (10D4, 4H11, 3E10 and 5C12) each at 1 ug/ml, total Ab: 4 ug/ml, were added to each well and the plate was incubated for 1 hour at room temperature. The plate was then washed and Strepavidin-HPR was added to each well and incubated 15 min. The plate was then washed 3× and blotted dry. 100 μl of TMB developing agent was added and the plate read at 650 nm. Values were calculated as percent of inhibition with HMG1 alone equal to 0% inhibition. The data in FIG. 9 and summarized in Table 1 represent the average of two separate experiments.

[3] = molecular target: T1, recombinant HMG1 purified from E. coli …; assay: BIAcore, mAb immobilized, HMG1 injected, steady-state model
Outline: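 Each mAb amine-coupled to a CM5 chip beside a reference flow cell. Twofold serial dilutions of recombinant HMG1 were injected at slow flow, and surfaces regenerated with 1M NaCl-50 mM NaOH. Affinity was derived from binding curves fitted to a steady-state model.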

HMG2 = molecular target: T2, HMG2 (UniProt P40673 2-209, limits assumed); assay: ELISA, wells coated with HMGB2 at 5 ug/mL, OD 490
T2 construct: also called HMGB2; HMBG2
T2 sequence (looked up): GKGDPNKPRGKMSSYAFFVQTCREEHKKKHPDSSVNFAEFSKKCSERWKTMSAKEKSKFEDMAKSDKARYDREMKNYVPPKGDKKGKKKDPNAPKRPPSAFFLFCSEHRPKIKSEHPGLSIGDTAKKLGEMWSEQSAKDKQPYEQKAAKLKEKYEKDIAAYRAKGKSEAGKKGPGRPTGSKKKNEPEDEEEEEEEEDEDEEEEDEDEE
Experimental: Binding to HMG1 vs. HMG2: Ultra high-binding ELISA plates (ThermoLab systems, #3855) were coated with either 5 ug/mL of Calf thymus HMGB1 or HMBG2 diluted in 10 mM Phosphate buffered saline (PBS), pH 7.2 and incubate overnight at 4 degrees. The plates were washed twice with Ca and Mg free PBS and 100 microliters of anti-HMGB1 antibody diluted in 10 mM PBS, pH 7.2+1% bovine serum albumin (BSA) to a final concentration of 10 ug/mL was added to each well and the plates were incubated 1 hour at room temperature. The wells were washed three times with 100 μl of PBS, pH 7.2. HRP labeled goat-anti-human IgG Kappa-chain (KPL, #14-10-10) and goat-anti-human IgG Lambda-chain (KPL, #14-10-11) were diluted in 10 mM PBS+1% BSA 1:1000 and 100 μl were added to each well and incubated for 1 hour at room temperature. The wells were then washed three times with 100 μl of PBS, pH 7.2. OPD substrate (Pierce chemical company, #34006) was prepared following the manufacturers instructions and 100 μl of prepared substrate was added to each well and the plates incubated at room temperature in the dark for 20-30 minutes. The reaction was stopped with the addition of 100 μl of 2M H₂SO₄, and the plates read on a plate reader at a wavelength of 490 nm.

[4] = molecular target: T3, HMG1 B Box peptide amino acids 150-183; assay: ELISA, wells coated with HMG1 B Box peptide 150-183 at 10 ug/ml
T3 peptide: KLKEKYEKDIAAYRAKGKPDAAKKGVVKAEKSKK
Outline: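 Biotinylated peptides captured on avidin-coated wells (1% BSA block, 30 min, room temperature), then antibodies added in serial dilution from 10 μg/ml; for the coated-peptide format, plates blocked with 4% milk/PBS 1 h at 37 °C. Bound antibody detected with anti-human IgG-HRP and TMB, absorbance at 450 nm.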

Binder	IC50, inhibition of HMG1 stimulated NO release from macrophages [1] [µg/mL]	IC50, inhibition of rHMG1 stimulated IL-1β release from human PBMC [1] [µg/mL]	IC50, inhibition of rHMG1 stimulated IL-6 release from human PBMC [1] [nM]	IC50, inhibition of rHMG1 stimulated TNF-α release from human PBMC [1] [µg/mL]	percent inhibition of HMG1 binding to RAGE-Fc [2] [%]	Kd [3] [nM]	binding result (HMG2)	binding result [4]	IC50, inhibition of rHMG1 stimulated IL-12 release from human PBMC [1] [µg/mL]
anti-HMG1 antibody S6 (antibody, V domains shown, also called ATCC PTA-6143) VH: EVQLLESGGGLVQPGGSLRLSCAASGFTFSWYDMSWVRQAPGKGLEWVSRISPSGGYTMYADSVKGRFTISRDNSKNTLYLQMNSLRAEDTAVYYCARLEVGATSGGTAFDIWGQGTMVTVSS VL: not shown	4.15	0.0232	0.174	0.0182	≥ 35	39	no binding (tested: 10 ug/mL (not on the sheet))	no binding (tested: 10 ug/ml (log 1.00))	–
anti-HMG1 antibody G4 (antibody, V domains shown, also called ATCC PTA-6258) VH: EVQLLESGGGLVQPGGSLRLSCAASGFTFSWYDMTWVRQAPGKGLEWVSSISPSGGYTKYADSVKGRFTISRDNSKNTLYLQMNSLRAEDTAVYYCTTEFYDYLDVWGKGTTVTVSS VL: DIQMTQSPGTLSLSPGEGATLSCRASQSVSSTYLAWYQQKPGQAPRLLIYEASKRATGTPARFSGSGSGTDFTLSISSLEPEDFAVYYCQHRHNWPPQWTFGQGTKVEVK	–	5.01	0.9	5.51	–	30	no binding (tested: 10 ug/mL (not on the sheet))	no binding (tested: 10 ug/ml (log 1.00))	0.715
anti-HMG1 antibody S2 (antibody, V domains shown, also called ATCC PTA-6142) VH: EVQLLESGGGLVQPGGSLRLSCAASGFTFSGYMMVWVRQAPGKGLEWVSRISPSGGQTGYADSVKGRFTISRDNSKNTLYLQMNSLRAEDTAVYYCAREEGGSYGAFDIWGQGTMVTVSS VL: not shown	–	0.22	0.163	0.0642	≥ 35	36	no binding (tested: 10 ug/mL (not on the sheet))	no binding (tested: 10 ug/ml (log 1.00))	–
anti-HMG1 antibody S16 (antibody, V domains shown, also called ATCC PTA-6259) VH: EVQLLESGGGLVQPGGSLRLSCAASGFTFSWYSMLWVRQAPGKGLEWVSYISPSGGFTNYADSVKGRFTISRDNSKNTLYLQMNSLRAEDTAVYYCARWDYNSGWYYDHWGQGTLVTVSS VL: DIQMTQSPDTLSLSPGERATLSCRASQSVNSRNLAWYQQKPGQAPRLLIYGASTRATGIPDRFSGSVSGTEFTLTISSLQPDDFATYYCQQYNSYFTFGQGTKLEIK	–	6.05	0.56	1.44	≥ 35	23	–	–	1.24
